# Data reported in article PMC5922973, “Topoisomerase VI senses and exploits both DNA crossings and bends to facilitate strand passage” (eLife, 2018).
# B1: S. cerevisiae topoisomerase II 1-1177 cyslite-180C, Alexa555/Alexa647-labeled (enzyme, Saccharomyces cerevisiae, UniProt P06786 1-1177, looked up)
# chain: MSTEPVSASDKYQKISQLEHILKRPDTYIGSVETQEQLQWIYDEETDAMIEKNVTIVPGLFKIFDEILVNAADNKVRDPSMKRIDVNIHAEEHTIEVKNDGKGIPIEIHNKENIYIPEMIFGHLLTSSNYDDDEKKVTGGRNGYGAKLCNIFSTEFILETADLNVGQKYVQKWENNMSICHPPKITSYKKGPSYTKVTFKPDLTRFGMKELDNDILGVMRRRVYDINGSVRDINVYLNGKSLKIRNFKNYVELYLKSLEKKRQLDNGEDGAAKSDIPTILYERINNRWEVAFAVSDISFQQISFVNSIATTMGGTHVNYITDQIVKKISEILKKKKKKSVKSFQIKNNMFIFINCLIENPAFTSQTKEQLTTRVKDFGSRAEIPLEYINKIMKTDLATRMFEIADANEENALKKSDGTRKSRITNYPKLEDANKAGTKEGYKCTLVLTEGDSALSLAVAGLAVVGRDYYGAYPLRGKMLNVREASADQILKNAEIQAIKKIMGLQHRKKYEDTKSLRYGHLMIMTDQDHDGSHIKGLIINFLESSFPGLLDIQGFLLEFITPIIKVSITKPTKNTIAFYNMPDYEKWREEESHKFTWKQKYYKGLGTSLAQEVREYFSNLDRHLKIFHSLQGNDKDYIDLAFSKKKADDRKEWLRQYEPGTVLDPTLKEIPISDFINKELILFSLADNIRSIPNVLDGFKPGQRKVLYGCFKKNLKSELKVAQLAPYVSEATAYHHGEQSLAQTIIGLAQNFVGSNNIYLLLPNGAFGTRATGGKDAAAARYIYTELNKLTRKIFHPADDPLYKYIQEDEKTVEPEWYLPILPMILVNGAEGIGTGWSTYIPPFNPLEIIKNIRHLMNDEELEQMHPWFRGWTGTIEEIEPLRYRMYGRIEQIGDNVLEITELPARTWTSTIKEYLLLGLSGNDKIKPWIKDMEEQHDDNIKFIITLSPEEMAKTRKIGFYERFKLISPISLMNMVAFDPHGKIKKYNSVNEILSEFYYVRLEYYQKRKDHMSERLQWEVEKYSFQVKFIKMIIEKELTVTNKPRNAIIQELENLGFPRFNKEGKPYYGSPNDEIAEQINDVKGATSDEEDEESSHEDTENVINGPEELYGTYEYLLGMRIWSLTKERYQKLLKQKQEKETELENLLKLSAKDIWNTDLKAFEVGYQEFLQRDAEAR
# modifications: Alexa Fluor 555 C2 maleimide or Alexa Fluor 647 C2 maleimide on the native cysteine 180
# notes: Saccharomyces cerevisiae topoisomerase II, C-terminal truncation coding for residues 1-1177 (Schmidt et al., 2012), with four cysteines changed to alanine; also called ScTop2^ΔCTR-cyslite-180C; topo II; not shown: His6, N-terminal, cleaved
# B2: Methanosarcina mazei topoisomerase VI subunit A (Top6A) (enzyme)
# chain: MEGEKGSKTRKGDALAREKLLEIAEKIYNQFEEEVVPSVSLPSRTKANLEYSDESDVWVYGDRESERSAKTVKGAFQLLKTTYATDFLINEHLARNRGSTLRELYYISEGWDYAKFKEQGESDRLIEDLEILTSLQREYFHMRPEEDGATMFGPIEITEQTKRGERNIHCQKDVGEGGYQIPFNVENIEFQKHDASMIIAIETGGMYARLMENGFDEAYNAILVHLKGQPARSTRRIIKRMNEELGIPVAVFTDGDPWSYRIYASVAYGAIKSAHLSEFMATPAAKFLGLQPSDIVEYELSTDKLTEQDVSALRSELSDPRFESDYWKEQIQLQLDIGKKAEQQAFAGKGLDFVTEVYLPNRLKEMGMI
# notes: Top6A of Methanosarcina mazei topo VI; the Top6A gene cloned into a polycistronic expression vector (Corbett et al., 2007); Two Top6A and two Top6B form the A2B2 heterotetramer; also called MmTop6A; A subunit of topo VI
# Tests used:
# [1] = target: the molecule itself; test: FRET or BRET; bulk FRET between Alexa555 and Alexa647 on Cys180 of the ATP gate; 200 nM topo II, 0 or 100 uM bp supercoiled DNA, 100 mM KCl, 10 mM Tris-HCl pH 7.9, 5 mM MgCl2, 0 or 1 mM AMPPNP
# [2] = target: the molecule itself; test: SEC; topo VI co-expressed in E. coli and co-purified through His6-Top6B (Ni2+, SP/Q, TEV, Ni2+), then Sephacryl-300 HR gel filtration in 20 mM HEPES-KOH pH 7.5, 300 mM KCl, 10% glycerol; heterotetramer peak
Protein,binding result [1],binding result [2]
B1,binds,
B2,,binds
